In the supplement of paper PMC11780869:

System: Bacillus subtilis
Experiment: cleaved RNA product abundance (RNA/gDNA barcode ratio) relative to median wild-type variant (ratio to wild type); higher = more accumulation of the downstream cleavage product
Procedure, shortened: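 Cleaved product abundance was measured with barcoded reporter mRNAs (truncated aprE or tetM) carrying mutagenized RNase Y cleavage-site windows in the B. subtilis chromosome. Cultures in LB at 37°C grew from OD600 0.0003 to 0.3. Gel-selected cleaved RNA was reverse transcribed and barcode-sequenced with genomic DNA barcodes, and the RNA:gDNA barcode ratio per construct was scaled to the median construct bearing the unmutated site.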

[1] = experiment (reporter, strain, medium): exp 8a: truncated aprE reporter, strain BJT201 with 2% xylose (RNase J1 expressed), cleavage site: glnRA (positions -5 to +31 mutated)
[2] = experiment (reporter, strain, medium): exp 2b: truncated aprE reporter, strain BJT200, cleavage site: cggR-gapA (positions -7 to +36 mutated)
[3] = experiment (reporter, strain, medium): exp 4a: truncated aprE reporter, strain BJT201 with 2% xylose (RNase J1 expressed), cleavage site: cggR-gapA (positions -7 to +36 mutated)
[4] = experiment (reporter, strain, medium): exp 6: tetM reporter, strain 168, cleavage site: cggR-gapA (positions -7 to +36 mutated)

Row | Sequence | cleaved RNA product abundance [1] | cleaved RNA product abundance [2] | cleaved RNA product abundance [3] | other results
1 | CGACATGTCCCGCTTCTTTCATTAATCCATTAGCAATTGTTTTGCTATATACATTTACCTTTTAAGAGGAGGAAT | 0.776 | – | – | –
2 | ACAGACGAAGGAGCCGCAAAGAAGTTATTAAGGGATGAATAATCTCTAAATATAAATATCTCTCACTTATTTAAA | – | 0.627 | 0.558 | –
3 | CGACATGTCCCGCTTCTTTCATTATTCCGTTAGCAACTGTTTTGCTATAAACAGTTACCTTTTAAGAGGAGGAAT | 0.0919 | – | – | –
4 | CGACATGTCCCGCTTCTTTCATTAATCCGTTAGCAAATGTTTTGCTATATACATTTACCCTTTAAGAGGAGGAAT | 0.852 | – | – | –
5 | CGACATGTCCCGCTTCTTTCATTAATCCATTAGCAACTGTTTTGCTATATACATTAACCTTTTAAGAGGAGGAAT | 1.3 | – | – | –
6 | ACAGACGAAGGAGCCGCAAAGAACTTATTAAGGGATGAATAATCCTTCAATATAAATATCTCTCACTTATTTAAA | – | – | 0.342 | –
7 | ACAGACGAAGGAGCCGCAAAGAAGTTATTAAGGGATGAATAATCGCTCAAAATAAATATCTCTCACTTATTTAAA | – | – | 0.116 | –
8 | CGACATGTCCCGCTTCTTTCATTAATCCGTTCGCAACTGTTTTGTTATATACATTTACCTTTTAAGAGGAGGAAT | 0.411 | – | – | –
9 | ACAGACGAAGGAGCCGCAAAGGAGTTAATAAGGGATGAATAATCCCTCAATATAAATATCTCTCACTTATTTAAA | – | 0.34 | 0.436 | –
10 | ACAGACGAAGGAGCCGCAAAGAAGTTAATAAGGGATGAATAATCCCTCAATATAAACATCTCTCACTTATTTAAA | – | – | 0.338 | –
11 | ACAGACGAAGGAGCCGCAAAGAAGTTATTAAGGGTTAAATAATCCCTCAATATAAATATCTCTCACTTATTTAAA | – | – | 0.753 | –
12 | CGACATGTCCCGCTTCTTTCATTAATCCGTAAGCAACTGTTTTGCTATATACATTTATCTTTTAAGAGGAGGAAT | 0.536 | – | – | –
13 | CGACATGTCCCGCTTCTTTCATTAATCCGTTAGCATCTGTTTTGCTATATAGATTTACCTTTTAAGAGGAGGAAT | 0.899 | – | – | –
14 | CGACATGTCCCGCTTCTTTCATTAATCCGTTCGCAACTTTTTTGCTATATACATTTACCTTTTAAGAGGAGGAAT | 0.381 | – | – | –
15 | ACAGACGAAGGAGCCGCAAAGAACTTATTAAGCGATGAATAATCCCTCAATATAAATATCTCTCACTTATTTAAA | – | 0.0844 | 0.157 | –
16 | ACAGACGAAGGAGCCGCAAAGAAGTTATTAAGGGATGAACAATTCCTCAATATAAATATCTCTCACTTATTTAAA | – | – | 0.44 | –
17 | ACAGACGAAGGAGCCGCAAATAAGATATTAAGGGATGAATAATCCCTCAATATAAATATCTCTCACTTATTTAAA | – | – | 1.08 | cleaved RNA product abundance [4]: 0.738
18 | ACAGACGAAGGAGCCGCAAAGAAGTTATTAAGGGTTGAATAATCACTCAATATAAATATCTCTCACTTATTTAAA | – | 0.098 | 0.127 | –
19 | ACAGACGAAGGAGCCGCAAAGAAGTTATTTAGGGATGAATAATCCCTCAATACAAATATCTCTCACTTATTTAAA | – | – | 0.0541 | –
20 | ACAGACGAAGGAGCCGCAAAGAAGTCATTAAGGGACGAATAATCCCTCAATATAAATATCTCTCACTTATTTAAA | – | – | 0.154 | –
21 | ACAGACGAAGGAGCCGCAAAGAAGTTATTAAAGGATGAATAATTCCTCAATATAAATATCTCTCACTTATTTAAA | – | 0.0999 | 0.172 | –
22 | ACAGACGAAGGAGCCGCAAAGAAGTTATTAAGGGATCAATAATCCCTCAATATAAATACCTCTCACTTATTTAAA | – | 0.479 | 0.36 | –
23 | ACAGACGAAGGAGCCGCAAAGAAATTATTAAGGGATGAATAATCCCTCAATATAAATCTCTCTCACTTATTTAAA | – | – | 0.66 | –

Row | Sequence | cleaved RNA product abundance [1] | cleaved RNA product abundance [2] | cleaved RNA product abundance [3] | other results
24 | ACAGACGAAGGAGCCGCAAAGAAGTTATTAAGGGATGAATAATCCCTCAAGATAAATATCTCTCACTTATTTAAA | – | 0.217 | 0.256 | cleaved RNA product abundance [4]: 0.289
25 | ACAGACGAAGGAGCCGCAAAAATGTTATTAAGGGATGAATAATCCCTCAATATAAATATCTCTCACTTATTTAAA | – | – | 0.983 | –
26 | CGACATGTCCCGCTTCTTTCATTAATCCGTTAGCAACTTTTTTGCTATATATATTTACCTTTTAAGAGGAGGAAT | 0.911 | – | – | –
27 | ACAGACGAAGGAGCCGCAAAGAAGTTATTAAGGCATGACTAATCCCTCAATATAAATATCTCTCACTTATTTAAA | – | 0.101 | 0.102 | –
28 | ACAGACGAAGGAGCCGCAAAAAAGTTATTAAGGTATGAATAATCCATCAATATAAATATCTCTCACTTATTTAAA | – | – | 0.23 | –
29 | ACAGACGAAGGAGCCGCAAAGAAGTTACTAAGGGATGAATAATCCCACAATATAAATATCTCTCACTTATTTAAA | – | 0.126 | 0.153 | –
30 | ACAGACGAAGGAGCCGCAAAGAAGTTATTAAGGGATGAATGATCCCACAATATAAATATCTCTCACTTATTTAAA | – | 0.121 | 0.101 | –
31 | ACAGACGAAGGAGCCGCAAAGAAGTTATTAAGGGGTGAATAATCCTTCAATATAAATATCTCTCACTTATTTAAA | – | – | 0.266 | –
32 | ACAGACGAAGGAGCCGCAAAGAAGTTATTAAGGGTTGAATAATCCGTCAATATAAATATCTCTCACTTATTTAAA | – | – | 0.187 | –
33 | CGACATGTCCCGCTTCTTTCATTAATCCGTTATCAACTGTTTTGCTATATACATATACCTTTTAAGAGGAGGAAT | 0.348 | – | – | –
34 | CGACATGTCCCGCTTCTTTCATTAATACGTTAGCAACTATTTTGCTATATACATTTACCTTTTAAGAGGAGGAAT | 1.33 | – | – | –
35 | CGACATGTCCCGCTTCTTTCATTAATCTATTAGCAACTGTTTTGCTATTTACATTTACCTTTTAAGAGGAGGAAT | 0.311 | – | – | –
36 | ACAGACGAAGGAGCCGCAAAGAATTTATTAAGGGATGAATAATCCCTCAATATAGATATCTCTCACTTATTTAAA | – | – | 0.431 | –
37 | CGACATGTCCCGCTTCTTTCATTAATCCGTTAGCAACTGTTTGGCTATATACATTTACCGTTTAAGAGGAGGAAT | 0.403 | – | – | –
38 | ACAGACGAAGGAGCCGCATAGAAGTAATTAAGGGATGAATAATCCCTCAATATAAATATCTCTCACTTATTTAAA | – | – | 0.356 | –
39 | CGACATGTCCCGCTTCTTTCATTAATCCGTTAGCATCTGTTTTGATATATACATTTACCTTTTAAGAGGAGGAAT | 0.491 | – | – | –
40 | ACAGACGAAGGAGCCGCAAAAAAGTTATTAAGGGATGAATAATCCCTAAATATAAATATCTCTCACTTATTTAAA | – | 0.57 | 0.765 | –
41 | ACAGACGAAGGAGCCGCAAAGAATTTATTAAGGGATGAAAAATCCCTCAATATAAATATCTCTCACTTATTTAAA | – | 0.561 | 0.35 | –
42 | ACAGACGAAGGAGCCGCAAAGAAGTGATTAAGGGATGAATTATCCCTCAATATAAATATCTCTCACTTATTTAAA | – | – | 0.366 | –
43 | ACAGACGAAGGAGCCGCAAAGAAGTTATTAAGGGATGAATAATAGCTCAATATAAATATCTCTCACTTATTTAAA | – | – | 0.13 | –
44 | ACAGACGAAGGAGCCGCAAAGATGTTATTAAGTGATGAATAATCCCTCAATATAAATATCTCTCACTTATTTAAA | – | 0.1 | 0.11 | –
45 | ACAGACGAAGGAGCCGCAAAGAAGTTTTTAAGGGATGAATAATCCCTCACTATAAATATCTCTCACTTATTTAAA | – | – | 0.267 | –
46 | ACAGACGAAGGAGCCGCAAAGAAGATATTAAAGGATGAATAATCCCTCAATATAAATATCTCTCACTTATTTAAA | – | 0.199 | 0.264 | –
